Data reported in patent US12172986B2, “Splicing modulator antibody-drug conjugates and methods of use” (EISAI R&D MANAGEMENT CO., LTD., priority 2018, dated 2024).

B1: AB205-ADL1-D14 (conjugate)
heavy: QVQLQQSGSELMMPGASVKISCKATGYTFSNYWIQRPGHGLEWIGEILPGTGRTIYNEKFKGKATFTADISSNTVQMQLSSLTSEDSAVYYCARRDYYGNFYYAMDYWGQGTSVTVSSAKTTPPSVYPLAPGSAAQTNSMVTLGCLVKGYFPEPVTVTWNSGSLSSGVHTFPAVLQSDLYTLSSSVTVPSSTWPSETVTCNVAHPASSTKVDKKIVPRDCGCKPCICTVPEVSSVFIFPPKPKDVLTITLTPKVTCVVVDISKDDPEVQFSWFVDDVEVHTAQTQPREEQFNSTFRSVSELPIMHQDWLNGKEFKCRVNSAAFPAPIEKTISKTKGRPKAPQVYTIPPPKEQMAKDKVSLTCMITDFFPEDITVEWQWNGQPAENYKNTQPIMDTDGSYFVYSKLNVQKSNWEAGNTFTCSVLHEGLHNHHTEKSLSHSPG
light: DIQMTQSTSSLSASLGDRVTISCSASQGINNYLNWYQQKPDGTVELLIYYTSTLQSGVPSRFSGSGSGTDYSLTISNLEPEDIGTYYCQQYSKLPRTFGGGTKLEIKRADAAPTVSIFPPSSEQLTSGGASVVCFLNNFYPKDINVKWKIDGSERQNGVLNSWTDQDSKDSTYSMSSTLTLTKDEYERHNSYTCEATHKTSTSPIVKSFNRNEC
B2: AB205-ADL1-D4 (conjugate)
heavy: B1 heavy
light: B1 light
B3: AB205-ADL5-D25 (conjugate)
heavy: B1 heavy
light: B1 light
B4: AB205-ADL5-D19 (conjugate)
heavy: B1 heavy
light: B1 light
B5: AB205-ADL5-D15 (conjugate)
heavy: B1 heavy
light: B1 light
B6: AB205-ADL1-D1 (conjugate)
heavy: B1 heavy
light: B1 light
B7: AB205-ADL10-D1 (conjugate)
heavy: B1 heavy
light: B1 light

Each molecule was assayed on MOLP8 cells (assay: Cell viability, CD138-expressing MOLP8). Conditions: anti-CD138 ADC.
Type: cell-based

In the case of B1, the “LD50 (nM) (ADC)” value is reported as >400 nM.
In the case of B4, the “LD50 (nM) (ADC)” value is reported as >400 nM.
In the case of B5, the “LD50 (nM) (ADC)” value is reported as >400 nM.
In the case of B7, the “LD50 (nM) (ADC)” value is reported as >400 nM.

First: B1
Second: B2
The “Rmin (%) (ADC)” value of the first is higher: −74.008% for the first, −99.306% for the second.

First: B3
Second: B4
The “Rmin (%) (ADC)” value of the first is lower: −76.736% for the first, −46.23% for the second.

Compared with B5, B6 is lower in “Rmin (%) (ADC)” value: 2.419% for the first, −100.099% for the second.

B7 was tested, and the “Rmin (%) (ADC)” value was −25.099%.

Compared with B2, B3 is 22-fold higher in “LD50 (nM) (ADC)” value: 0.535 nM for the first, 11.669 nM for the second.

B6 was tested, and the “LD50 (nM) (ADC)” value was 0.656 nM.

Same assay, conditions: anti-CD138 ADC, read-out: GI50 (nM) (ADC)

B1 and B2 cannot be ordered by GI50: < 0.061 nM for the first, < 0.061 nM for the second.

B3 and B4 cannot be ordered by GI50: < 0.061 nM for the first, < 0.061 nM for the second.

B5 and B6 cannot be ordered by GI50: 0.268 nM for the first, > 0.061 nM for the second.

In the case of B7, the GI50 is reported as 0.08 nM.
